Changes are numbered by the printed parent chain. Numbers in names are those of the source.
T1: cHER3ECD (Maccaca fascicularis HER3 extracellular domain) (Macaca fascicularis, UniProt P21860 20-643 (human entry))
T1 construct: also called cyno HER3ECD; cyno HER3-ECD
T1 chain: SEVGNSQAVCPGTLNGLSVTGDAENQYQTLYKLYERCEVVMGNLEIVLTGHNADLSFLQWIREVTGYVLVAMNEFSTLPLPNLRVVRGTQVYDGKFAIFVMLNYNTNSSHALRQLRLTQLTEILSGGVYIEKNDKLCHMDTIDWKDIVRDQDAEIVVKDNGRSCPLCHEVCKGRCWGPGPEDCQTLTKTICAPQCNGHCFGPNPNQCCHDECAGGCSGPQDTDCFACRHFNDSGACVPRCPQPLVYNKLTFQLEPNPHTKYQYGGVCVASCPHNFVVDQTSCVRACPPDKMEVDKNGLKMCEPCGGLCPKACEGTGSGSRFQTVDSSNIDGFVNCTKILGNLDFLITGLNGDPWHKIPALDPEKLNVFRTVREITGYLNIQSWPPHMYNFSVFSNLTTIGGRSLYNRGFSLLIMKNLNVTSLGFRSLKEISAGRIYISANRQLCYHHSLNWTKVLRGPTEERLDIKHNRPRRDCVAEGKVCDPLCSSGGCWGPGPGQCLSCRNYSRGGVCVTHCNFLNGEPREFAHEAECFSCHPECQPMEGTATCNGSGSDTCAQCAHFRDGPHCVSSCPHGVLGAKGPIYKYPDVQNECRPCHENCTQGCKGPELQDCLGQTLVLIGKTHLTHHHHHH

T2: Chimeric chicken Her3-human domain 1 (AA1-206 human, AA207-642 chicken) (chicken/human chimera)
T2 construct: Transmembrane and extracellular regions, on HEK293 cells
T2 chain: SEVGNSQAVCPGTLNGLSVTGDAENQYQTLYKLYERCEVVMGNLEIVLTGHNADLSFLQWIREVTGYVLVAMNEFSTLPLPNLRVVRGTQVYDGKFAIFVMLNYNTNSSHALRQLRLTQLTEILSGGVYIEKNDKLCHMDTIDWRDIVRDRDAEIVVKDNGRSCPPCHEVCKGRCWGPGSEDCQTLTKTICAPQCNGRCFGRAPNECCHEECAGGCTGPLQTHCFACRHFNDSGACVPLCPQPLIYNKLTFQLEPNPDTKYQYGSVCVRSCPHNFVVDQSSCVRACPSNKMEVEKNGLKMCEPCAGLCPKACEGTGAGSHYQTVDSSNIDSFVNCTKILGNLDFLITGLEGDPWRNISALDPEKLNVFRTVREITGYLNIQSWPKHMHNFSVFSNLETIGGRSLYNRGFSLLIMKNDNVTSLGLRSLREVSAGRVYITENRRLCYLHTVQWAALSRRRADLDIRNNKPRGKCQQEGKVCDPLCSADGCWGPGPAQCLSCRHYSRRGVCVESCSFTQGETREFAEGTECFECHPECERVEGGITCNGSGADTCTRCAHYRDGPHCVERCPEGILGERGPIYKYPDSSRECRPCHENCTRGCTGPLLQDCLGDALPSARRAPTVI

B1: 18F05 (VHH)
VHH: EVQLVESGGGLVQPGGSLRLSCVASGFTFSSYWMYWVRQAPGKGVEWVSAISPGGVERYTDSVKGRFTISRDNAKNTLYLQMNSLKSEDTAMYYCARLTSFATPESQGTQVTVSS
notes: also called 18F5
B2: 18B05 (VHH)
VHH: EVQLVESGGGLVQAGGSLRLSCAASGLTFGSAPMGWYRQAPGKERELVAYISGDERIWYGDSVKGRFTISRDTTKNTLYLQMNSLKPEDTAVYYCVSDVKVRHWGQGTQVTVSS
B3: 17E08 (VHH)
VHH: EVQLVESGGGLVQPGGSLRLSCSASGSIFGLNAMGWYRQTPGKERELVAGITSITRVGSTRYADSAKGRFTISGDYAKNTVYLQMNSLKPEDTGVYYCRMSIVKSGGADYWGQGTQVTVSS
B4: HER3MS00076 (VHH)
VHH: EVQLVESGGGLVQPGGSLRLSCAASGSIGGLNAMAWYRQAPGKERELVAGIFGVGSTRYADSVKGRFTISRDISKNTVFLQMNSLRSEDTAVYYCRMSSVTRGSSDYWGQGTLVTVSS
notes: 17B05 + A74S, N83R, Q108L; also called HER3MS0076; 17B05 basic variant
B5: HER3MS00085 (VHH)
VHH: B4 VHH with S87A
notes: 17B05 basic + S84A; also called HER3MS0085
B6: HER3MS00084 (VHH)
VHH: B4 VHH with S87P
notes: 17B05 basic + S84P; also called HER3MS0084
B7: HER3MS00083 (VHH)
VHH: B4 VHH with I73N, F79Y, R96A
notes: also called HER3MS0083
B8: HER3MS00080 (VHH)
VHH: B4 VHH with I73N, F79Y
notes: 17B05 basic + I73N + F79Y; also called HER3MS0080
B9: HER3MS00043 (VHH)
VHH: EVQLVESGGGLVQPGGSLRLSCAASGFTFSSYPMSWVRQAPGKGPEWVSTVSPGGITTSYADSVKGRFTISRDNSKNTLYLQMNSLRPEDTAVYYCLRDLNNRGQGTLVTVSS
notes: 04C07 basic + A46E; also called HER3MS0043
B10: HER3MS00044 (VHH)
VHH: B9 VHH with E46A, L97A
notes: 04C07 basic + L93A; also called HER3MS0044

target: T3, human HER1 (human, UniProt P00533 25-1210); assay: FACS, CHO-HER1
T3 construct: also called EGFR; ErbB1

Row | binding result | Binder
1 | no binding (tested: 2000 nM) | B1
2 | no binding (tested: 2000 nM) | B2
3 | no binding (tested: 2000 nM) | B3

target: T4, human HER2 (human, UniProt P04626 23-1255); assay: FACS, CHO-HER2
T4 construct: also called hHER2

Row | binding result | Binder
4 | no binding (tested: 2000 nM) | B1
5 | no binding (tested: 2000 nM) | B2
6 | no binding (tested: 2000 nM) | B3

target: T5, human HER4 (human, UniProt Q15303 26-1308); assay: FACS, CHO-HER4
T5 sequence (Q15303 26-1308 limits assumed): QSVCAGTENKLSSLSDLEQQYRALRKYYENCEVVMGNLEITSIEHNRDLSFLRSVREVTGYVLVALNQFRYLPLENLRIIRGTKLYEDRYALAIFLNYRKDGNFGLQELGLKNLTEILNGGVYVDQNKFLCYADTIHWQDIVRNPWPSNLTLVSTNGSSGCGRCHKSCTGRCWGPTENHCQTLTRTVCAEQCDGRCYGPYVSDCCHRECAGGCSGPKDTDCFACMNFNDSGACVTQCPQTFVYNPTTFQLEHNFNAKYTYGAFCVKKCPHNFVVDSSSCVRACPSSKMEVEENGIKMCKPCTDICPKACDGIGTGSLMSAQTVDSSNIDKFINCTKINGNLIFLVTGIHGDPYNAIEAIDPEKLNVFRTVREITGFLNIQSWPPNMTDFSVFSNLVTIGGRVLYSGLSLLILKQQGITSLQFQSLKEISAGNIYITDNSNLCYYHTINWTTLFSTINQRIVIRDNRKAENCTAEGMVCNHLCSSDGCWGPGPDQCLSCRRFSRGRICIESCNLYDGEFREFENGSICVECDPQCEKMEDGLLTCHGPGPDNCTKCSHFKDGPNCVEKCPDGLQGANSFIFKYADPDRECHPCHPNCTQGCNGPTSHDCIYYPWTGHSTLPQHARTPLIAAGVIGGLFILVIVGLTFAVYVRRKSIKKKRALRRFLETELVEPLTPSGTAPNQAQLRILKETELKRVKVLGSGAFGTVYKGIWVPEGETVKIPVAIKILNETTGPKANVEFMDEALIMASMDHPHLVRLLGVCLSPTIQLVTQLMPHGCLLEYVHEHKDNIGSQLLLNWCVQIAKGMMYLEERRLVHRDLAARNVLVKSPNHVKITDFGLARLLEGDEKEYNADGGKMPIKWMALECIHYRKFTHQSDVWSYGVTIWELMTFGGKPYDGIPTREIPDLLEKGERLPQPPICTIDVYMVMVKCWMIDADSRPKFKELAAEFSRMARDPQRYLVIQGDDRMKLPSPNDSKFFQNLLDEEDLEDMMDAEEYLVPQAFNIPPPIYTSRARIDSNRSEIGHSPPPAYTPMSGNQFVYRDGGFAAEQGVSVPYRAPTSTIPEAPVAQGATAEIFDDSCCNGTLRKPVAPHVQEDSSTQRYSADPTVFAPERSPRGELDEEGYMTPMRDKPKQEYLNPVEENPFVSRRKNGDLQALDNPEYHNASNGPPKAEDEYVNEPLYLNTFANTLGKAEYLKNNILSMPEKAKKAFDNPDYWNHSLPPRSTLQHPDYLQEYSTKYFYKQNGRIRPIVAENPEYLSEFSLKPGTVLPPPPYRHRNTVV

Row | binding result | Binder
7 | no binding (tested: 2000 nM) | B1
8 | no binding (tested: 2000 nM) | B2
9 | no binding (tested: 2000 nM) | B3

target: T3, human HER1; assay: FACS CHO-HER1, 222 nM

Row | MCF | Binder
10 | 154 | B1
11 | 82 | B2
12 | 66 | B3

target: T3, human HER1; assay: FACS CHO-HER1, 667 nM

Row | MCF | Binder
13 | 60 | B1
14 | 101 | B2
15 | 52 | B3

target: T4, human HER2; assay: FACS CHO-HER2, 222 nM

Row | MCF | Binder
16 | 436 | B1
17 | 61 | B2
18 | 51 | B3

target: T4, human HER2; assay: FACS CHO-HER2, 667 nM

Row | MCF | Binder
19 | 347 | B1
20 | 63 | B2
21 | 51 | B3

target: T5, human HER4; assay: FACS CHO-HER4, 222 nM

Row | MCF | Binder
22 | 149 | B1
23 | 60 | B2
24 | 110 | B3

target: T5, human HER4; assay: FACS CHO-HER4, 667 nM

Row | MCF | Binder
25 | 149 | B1
26 | 95 | B2
27 | 117 | B3

target: T3, human HER1; assay: FACS CHO-HER1, 2000 nM

Row | MCF | Binder
28 | 133 | B1
29 | 61 | B2
30 | 59 | B3

target: T4, human HER2; assay: FACS CHO-HER2, 2000 nM

Row | MCF | Binder
31 | 256 | B1
32 | 77 | B2
33 | 73 | B3

target: T5, human HER4; assay: FACS CHO-HER4, 2000 nM

Row | MCF | Binder
34 | 120 | B1
35 | 96 | B2
36 | 242 | B3

target: T6, hHER3 full length (human, UniProt P21860 20-1342); assay: cell-based or functional assay

Row | IC50, HRG1-β1 induced pHER3, MCF-7 [M] | IC50, HRG1-β1 induced pHER3, MDA-MB468 [M] | Binder
37 | 1.53e-09 | 1.8e-08 | B1
38 | 5.18e-09 | 3e-08 | B2
39 | 4.51e-09 | 2.46e-08 | B3

target: T6, hHER3 full length; assay: cell-based or functional assay; remark: another data set of the same source

Row | IC50, HRG1-β1 induced pAkt, MCF-7 [M] | IC50, HRG1-β1 induced pERK1/2, MCF-7 [M] | inhibition of HRG1-β1 induced pERK1/2, MCF-7 [% inhibition] | Binder
40 | 8.04e-09 | 8.98e-08 |  | B1
41 | 6.02e-09 |  | < 50 | B2
42 | 5.78e-09 | 2.78e-09 |  | B3

target: T7, hHER3 ECD (human HER3 extracellular domain) (human, UniProt P21860 20-643); assay: ELISA, coated hHER3-ECD
T7 construct: also called recombinant HER3-ECD

Row | EC50 [pM] | Binder
43 | 290 | B1
44 | 400 | B2
45 | 1020 | B3

Target: T1, cHER3ECD (Maccaca fascicularis HER3 …)
Assay: ELISA, coated cHER3-ECD

Row | EC50 [pM] | Binder
46 | 290 | B1
47 | 450 | B2
48 | 1150 | B3

target: T7, hHER3 ECD (human HER3 extracellular …); assay: SPR off rate on HER3-ECD

Row | koff [s⁻¹] | Binder
49 | 0.00017 | B4
50 | 0.00019 | B5
51 | 0.00018 | B6
52 | 0.00084 | B7
53 | 0.00018 | B8

Target: T2, Chimeric chicken Her3-human domain 1 …
Assay: FACS, HEK293 with chimeric HER3

Row | binding result | Binder
54 | binds | B1
55 | binds | B2
56 | binds | B3

target: T8, human HER3-Fc (R&D Systems, 348-RB) (human, UniProt P21860 20-643); assay: HRG competition alphascreen
T8 construct: Bought; also called hHER3-Fc; Fc-HER3; Fc part of the bought chimera not given, not described

Row | IC50 [pM] | Binder
57 | 1020 | B9
58 | 1000 | B10

target: T8, human HER3-Fc (R&D Systems, 348-RB); assay: HRG competition alphascreen; remark: another data set of the same source

Row | IC50 [pM] | Binder
59 | 788 | B4
60 | 760 to 940 | B5
61 | 940 | B6
62 | 4950 | B7
63 | 731 | B8

target: T8, human HER3-Fc (R&D Systems, 348-RB); assay: SPR, HER3-Fc captured by anti-Fc

Row | Kd [pM] | kon [M⁻¹ s⁻¹] | Binder
64 | 240 | 427000 | B1
65 | 290 | 490000 | B2
66 | 110 | 363000 | B3

target: T6, hHER3 full length; assay: FACS, 400 nM, competitor 04C07-biotin

Row | % competition [%] | Binder
67 | 100 | B1
68 | 98 | B2
69 | 100 | B3

target: T6, hHER3 full length; assay: FACS, 400 nM, competitor 04F10-biotin

Row | % competition [%] | Binder
70 | 15 | B1
71 | 31 | B2
72 | 32 | B3

target: T6, hHER3 full length; assay: FACS, 400 nM, competitor 17C08-biotin

Row | % competition [%] | Binder
73 | 0 | B1
74 | 0 | B2
75 | 0 | B3

target: T6, hHER3 full length; assay: FACS, 400 nM, competitor 18E08-biotin

Row | % competition [%] | Binder
76 | 0 | B1
77 | 0 | B2
78 | 0 | B3

target: T6, hHER3 full length; assay: FACS, 400 nM, competitor 21B02-biotin

Row | % competition [%] | Binder
79 | 0 | B1
80 | 0 | B2
81 | 5 | B3

target: T6, hHER3 full length; assay: FACS, 400 nM, competitor 23F05-biotin

Row | % competition [%] | Binder
82 | 0 | B1
83 | 0 | B2
84 | 0 | B3

target: T6, hHER3 full length; assay: FACS competition with HRG1-β1-EGF, CHO-HER3

Row | IC50 [pM] | Binder
85 | 20100 | B1
86 | 16100 | B2
87 | 75900 | B3
